Measured values as given in PMC11236199, “Variation in structural motifs within SARS-related coronavirus spike proteins” (PLOS Pathogens, 2024).

Target: the molecule itself
Assay: cryo-EM structure

B1: Bat SARS-like coronavirus WIV1 spike protein ectodomain (domain or fragment)
chain: not shown
notes: also called bCoV-WIV1; bat SL-CoV WIV1
- stoichiometry N: 3
